# Test results published in article PMC9118981.
# B1: CAH-PR (Pseudolabrys sp. Root1462) (protein)
# chain: MPIAKVHRISASSPNDVSGLEAAIASGRIDPKGVIAVLGKTEGNGLVNDFSRGLATTALTLLFERHLPQAEAAQICLVMSGGTEGGMAPHWIVFERGKGEGGRSPALAIGRAHTLQLPYEQLGRLGEVDQVAAGVRAAMEDAGIADPADVHFVQIKCPLLTAQRIAEAEARGAAVATRDTLKSMSLSRAASALGAAVALGEIDRAAITEAQIGSDWSLWSGRASTSAGIELVNHEIVVLGMSKDWSGPLAIDHAVMRDGIDIEPVRAALQRLGLGAAGQLDPAQRNKMVALLAKAEASHDGRLRGHRHTMLDDSDIASTRHARGFVCGALAGLVGHAEIYVSGGAEHQGPDGGGPVAVIVDRG
# notes: codon-optimised gene expressed in Bacillus subtilis, purified; no tag mentioned
# B2: CAH-BD (Bradyrhizobium diazoefficiens USDA 110) (protein)
# chain: MRTTSVGVFKIVTKGPGDVSGLMAMIGSGAIDPKSILAVLGKTEGNGGVNDFTREYAVAALCTALAPQLGLSPEEVEQRIAFVMSGGTEGVLSPHITVFTRREVERRPAGLSGKRLSIGMAHTRDFLPEELGRAAQIAETAAAVKAAMADAGIADPADVHFVQIKCPLLTSDRVEAASARGNKTATTSAYGSMAYSRGASALGVAVALGETGSDISDGDVLRRYDLFSKVASTSAGIELMHNVVIVLGNSAASASEFEIGHAVMNDAIDAAAVTSALKCVGLGVAPQAEAGRELVNIFAKAEASPDGSVRGFRHTMLEDTDISSTRHARAAVGGLIAGLAGTGAVYVSGGAEHQGPAGGGPVAVIARLSD
# notes: as for B1
# Key:
# [1] = substrate: O=c1[nH]c(=O)[nH]c(=O)[nH]1; experiment: purified protein; assay type: biochemical, Pseudolabrys sp. Root1462; details: 50.0 °C
# [2] = substrate: O=c1[nH]c(=O)[nH]c(=O)[nH]1; experiment: purified protein; assay type: biochemical, Bradyrhizobium diazoefficiens; details: 50.0 °C
Protein,Km [1] [µM],kcat [1] [s⁻¹],Km [2] [µM],kcat [2] [s⁻¹]
B1,115 ± 36,10.1 ± 2.7,–,–
B2,–,–,103 ± 29,10.6 ± 1.9
